Each block holds one binder with its values, some of them ahead of it.
Molecular target: T1, Bcl2 (UniProt P10415 1-207, limits assumed, biotinylated)
T1 construct: Loaded on streptavidin biosensors; also called Biotinylated Bcl2; target
Experiment: bio-layer interferometry (Octet), Bcl2 on tips, switch with nine residue toehold with and without cognate key
Description: Specificity was designed for using different hydrogen bond networks at the cage-key interface. The latch helix was deleted from the original extended LOCKRₐ model and backbones for a new sixth helix were generated by parametrically sampling the radius, helical phase, and z-offset of the new latch/key helix. The resulting structures were scanned for new hydrogen bond networks spanning the interface between the new sixth helix and cage with all buried polar atoms participating in hydrogen bonds; the remaining interface around the networks was subjected to full sequence and sidechain rotamer optimization using Rosetta™ design. Five designs were selected based on packing quality, sequence dissimilarity, and lack of buried polar atoms not participating in hydrogen bonds. Truncations and toehold variants were assayed for cognate and off target key binding using the GFP pulldown assay from FIG. 1c. […] All bound keyₐ to some extent yet is unknown. The Bim sequence was threaded onto the latches of these three designs as it was for the original design, BimLOCKRₐ (FIG. 2). BimLOCKRb and BimLOCKR, show 22-fold and 8-fold activation, respectively, from their cognate keys given a nine residue toehold on the latch (FIG. 3a,b). BimLOCKRₐ, BimLOCKRb and BimLOCKRc are also orthogonal; each is activated only by its cognate key at concentrations up to 5 uM (FIG. 3c). […]

T1 sequence (P10415 1-207 limits assumed): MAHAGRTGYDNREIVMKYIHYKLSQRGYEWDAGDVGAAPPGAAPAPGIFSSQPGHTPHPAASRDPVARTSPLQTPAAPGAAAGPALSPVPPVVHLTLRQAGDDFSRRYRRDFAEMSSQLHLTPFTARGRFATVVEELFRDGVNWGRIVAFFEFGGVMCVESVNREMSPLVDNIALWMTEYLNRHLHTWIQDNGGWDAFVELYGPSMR

fold activation of binding by the cognate key: 22 fold
B1: BimLOCKRb (nine residue toehold) (designed binder)
chain: MGSSHHHHHHSSGLVPRGSHMSHAAVIKLSDLNIRLLDKLLQAVIKLTELNAELNRKLIEALQRLFDLNVALVHLAAELTDPKRIADEIKKVKDKSKEIVERAEEEIARAAAESKKILDEAEEEIARAAAESKKILDEGSGSGSDAVAELQALNLKLAELLLEAVAELQALNLKLAELLLEAIAKLQELNIKLVELLTKLTDPATIREAIRKVKEDSERIVAEAERLIAAAKAESERIIREAERLIAAAKAESERIIREGSGSNDPQVAQNQETFIELARDALRLVAENQEAFIEVARLTLRAAALAQEVAIKAVEAASEGGSGSGNEIWIAQELRRIGDEFNAYYAEHKEIHDKLRKKNKKAREDLKKKADE

fold activation of binding by the cognate key: 8 fold
B2: BimLOCKRc (nine residue toehold) (designed binder)
chain: MGSSHHHHHHSSGLVPRGSHMSLEAVLKLAELNLKLSDKLAEAVQKLAALLNKLLEKLSEALQRLFELNVALVTLAIELTDPKRIADEIKKVKDKSKEIVERAEEEIARAAAESKKILDEAEEEIARAAAESKKILDEGSGSGSDAVAELQALNLKLAELLLEAVAELQALNLKLAELLLEAIAKLQELNIKLVELLTKLTDPATIREAIRKVKEDSERIVAEAERLIAAAKAESERIIREAERLIAAAKAESERIIREGSGSNDPLVARLQELLIEHARELLRLVATSQEIFIELARAFLANAAQLQEAAIKAVEAASENGSGEIWIAQELRRIGDEFNAYYAQNQKLLKDHKRAQEKLNRELEELKKKHKK
notes: also called printed once as 'BimLOCKR,'
